Experimental findings from patent US20200330588A1 are described below.

What all share (experiment): flow cytometry, HEK293 cells transfected with gH alanine mutant and gL; % of gH-positive cells compared to WT
In general terms: A flow cytometer gives signals particle by particle.

Assay [1] concerns the target gH alanine mutant 478-488 (label as in Table 6).
Assay [2] addresses gH alanine mutant 480-481 transfected into HEK293 cells with gL (Human cytomegalovirus (consensus sequence; strain of the construct not stated); Human cytomegalovirus).
The target in assay [3] is gH alanine mutant 482-483 transfected into HEK293 cells with gL (Human cytomegalovirus (consensus sequence; strain of the construct not stated); Human cytomegalovirus).
The target of assay [4] is gH alanine mutant 484-485 transfected into HEK293 cells with gL (Human cytomegalovirus (consensus sequence; strain of the construct not stated); Human cytomegalovirus).
The target of assay [5] is gH alanine mutant 486-487 transfected into HEK293 cells with gL (Human cytomegalovirus (consensus sequence; strain of the construct not stated); Human cytomegalovirus).
Assay [6] addresses gH alanine mutant 488-489 transfected into HEK293 cells with gL (Human cytomegalovirus (consensus sequence; strain of the construct not stated); Human cytomegalovirus).
Assay [7] concerns the target gH alanine mutant 490-491 transfected into HEK293 cells with gL (Human cytomegalovirus (consensus sequence; strain of the construct not stated); Human cytomegalovirus).
Assay [8] deals with gH mutant 480-486 (consecutive alanine substitutions) transfected into HEK293 cells with gL (Human cytomegalovirus (consensus sequence; strain of the construct not stated); Human cytomegalovirus).
Assay [9] deals with gH mutant 485-492 (consecutive alanine substitutions) transfected into HEK293 cells with gL (Human cytomegalovirus (consensus sequence; strain of the construct not stated); Human cytomegalovirus).

With “human anti-gH monoclonal antibody MSL-109”, the Avg. binding (% of mass) in [1] was 100%; in assay [2] it was 87%; in assay [3], 92%; in assay [4], 86%; in assay [5], 66%; in assay [6], 111%. Also, the Avg. binding (% of mass) in [7] came to 89%; in assay [8], 66%; in assay [9], 65%.
